Consider one substance from paper PMC9232537.

This experiment addresses 6xHis-N-WASP (UniProt O00401).
Sequence of UniProt O00401 (O00401 whole entry): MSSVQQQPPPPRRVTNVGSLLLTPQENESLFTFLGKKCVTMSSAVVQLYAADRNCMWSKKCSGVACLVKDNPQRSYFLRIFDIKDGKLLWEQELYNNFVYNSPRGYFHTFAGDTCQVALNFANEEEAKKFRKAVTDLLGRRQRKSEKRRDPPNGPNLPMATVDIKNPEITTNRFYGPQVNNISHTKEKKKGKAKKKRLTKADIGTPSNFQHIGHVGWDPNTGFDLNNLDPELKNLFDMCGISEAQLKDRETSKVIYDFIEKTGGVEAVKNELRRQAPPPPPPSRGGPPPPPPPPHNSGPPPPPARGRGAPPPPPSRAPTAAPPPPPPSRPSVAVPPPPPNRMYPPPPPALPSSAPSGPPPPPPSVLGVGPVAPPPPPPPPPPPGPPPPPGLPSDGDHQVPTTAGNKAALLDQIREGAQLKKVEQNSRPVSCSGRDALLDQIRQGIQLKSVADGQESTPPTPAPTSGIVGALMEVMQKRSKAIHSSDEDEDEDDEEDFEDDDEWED

purified native MirA (natural protein) showed a pyrene actin (1 µM, 10% labeled) polymerization with Arp2/3 complex (50 nM), N-WASP (200 nM) and increasing MirA; MirA concentration for half-maximum activity (time to half-maximum fluorescence) of 60 nM.
